Test results taken from PMC9374677 (2022).

Biological target: T1, MBP-TNFR1^ECD deletion mutant ΔCRD1 (human, UniProt P19438 22-211)
T1 chain: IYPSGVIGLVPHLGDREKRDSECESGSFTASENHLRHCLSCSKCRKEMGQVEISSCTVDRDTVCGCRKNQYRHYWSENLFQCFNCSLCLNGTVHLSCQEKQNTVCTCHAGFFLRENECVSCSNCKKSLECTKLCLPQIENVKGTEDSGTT
Assay: ITC

B1: Staphylococcal superantigen-like protein 10 (SSL10), residues 31-227, C-terminal 6xHis (natural protein)
chain: KQNQKSVNKHDKEALYRYYTGKTMEMKNISALKHGKNNLRFKFRGIKIQVLLPGNDKSKFQQRSYEGLDVFFVQEKRDKHDIFYTVGGVIQNNKTSGVVSAPILNISKEKGEDAFVKGYPYYIKKEKITLKELDYKLRKHLIEKYGLYKTISKDGRVKISLKDGSFYNLDLRSKLKFKYMGEVIESKQIKDIEVNLK
- Kd: 11.1 µM
